# Experimental data as given in patent US20180155451A1 (published 2018).
# T1: FcγRIIb (human, UniProt P31994 43-217)
# T1 construct: extracellular domain; also called FcgRIIb; 2b
# T1 sequence (looked up): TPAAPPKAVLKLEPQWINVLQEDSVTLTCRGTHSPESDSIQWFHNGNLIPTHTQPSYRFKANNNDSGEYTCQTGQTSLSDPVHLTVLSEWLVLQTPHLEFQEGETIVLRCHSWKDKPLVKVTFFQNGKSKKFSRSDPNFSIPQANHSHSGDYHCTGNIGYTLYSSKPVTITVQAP
# B1: GpH7-A5/GpH7-B3 variant (G236_08L)/GpL16-k0 (antibody, human IgG1, kappa)
# heavy 1: not shown
# heavy 2: not shown
# light: DIVMTQSPLSLPVTPGEPASISCQASESLVHSNRNTYLHWYLQKPGQSPQLLIYKVSNRFSGVPDRFSGSGSGTDFTLKISRVEAEDVGVYYCSQNTHVPPTFGQGTKVEIERTVAAPSVFIFPPSDEQLKSGTASVVCLLNNFYPREAKVQWKVDNALQSGNSQESVTEQDSKDSTYSLSSTLTLSKADYEKHKVYACEVTHQGLSSPVTKSFNRGEC
# notes: IgG1 heterodimer, mutation in the GpH7-B3 chain only; also called He Ab
# B2: GpH7-A5/GpH7-B3 variant (L235_11K)/GpL16-k0 (antibody, human IgG1, kappa)
# heavy 1: not shown
# heavy 2: not shown
# light: B1 light
# notes: as for B1
# B3: GpH7-A5/GpH7-B3 variant (H268_12R)/GpL16-k0 (antibody, human IgG1, kappa)
# heavy 1: not shown
# heavy 2: not shown
# light: B1 light
# notes: as for B1
# B4: GpH7-A5/GpH7-B3 variant (H268_08L)/GpL16-k0 (antibody, human IgG1, kappa)
# heavy 1: not shown
# heavy 2: not shown
# light: B1 light
# notes: as for B1
# B5: GpH7-A5/GpH7-B3 variant (L234_07I)/GpL16-k0 (antibody, human IgG1, kappa)
# heavy 1: not shown
# heavy 2: not shown
# light: B1 light
# notes: as for B1
# B6: GpH7-A5/GpH7-B3 variant (L235_03V)/GpL16-k0 (antibody, human IgG1, kappa)
# heavy 1: not shown
# heavy 2: not shown
# light: B1 light
# notes: as for B1
# B7: GpH7-A5/GpH7-B3 variant (H268_06M)/GpL16-k0 (antibody, human IgG1, kappa)
# heavy 1: not shown
# heavy 2: not shown
# light: B1 light
# notes: as for B1
# B8: GpH7-A5/GpH7-B3 variant (L234_04F)/GpL16-k0 (antibody, human IgG1, kappa)
# heavy 1: not shown
# heavy 2: not shown
# light: B1 light
# notes: as for B1
# B9: GpH7-A5/GpH7-B3 variant (H268_11K)/GpL16-k0 (antibody, human IgG1, kappa)
# heavy 1: not shown
# heavy 2: not shown
# light: B1 light
# notes: as for B1
# B10: GpH7-A5/GpH7-B3 variant (S267_18N)/GpL16-k0 (antibody, human IgG1, kappa)
# heavy 1: not shown
# heavy 2: not shown
# light: B1 light
# notes: as for B1
# B11: GpH7-A5/GpH7-B3 variant (G237_03V)/GpL16-k0 (antibody, human IgG1, kappa)
# heavy 1: not shown
# heavy 2: not shown
# light: B1 light
# notes: as for B1
# B12: GpH7-A5/GpH7-B3 variant (L234_03V)/GpL16-k0 (antibody, human IgG1, kappa)
# heavy 1: not shown
# heavy 2: not shown
# light: B1 light
# notes: as for B1
# B13: GpH7-A5/GpH7-B3 variant (L235_01G)/GpL16-k0 (antibody, human IgG1, kappa)
# heavy 1: not shown
# heavy 2: not shown
# light: B1 light
# notes: as for B1
# B14: GpH7-A5/GpH7-B3 variant (L235_05P)/GpL16-k0 (antibody, human IgG1, kappa)
# heavy 1: not shown
# heavy 2: not shown
# light: B1 light
# notes: as for B1
# B15: GpH7-A5/GpH7-B3 variant (L234_15Y)/GpL16-k0 (antibody, human IgG1, kappa)
# heavy 1: not shown
# heavy 2: not shown
# light: B1 light
# notes: IgG1 heterodimer, L234Y in the GpH7-B3 chain only; also called GpH7-A5/GpH7-B3-01-15Y/GpL16-k0; He Ab
# B16: GpH7-A5/GpH7-B3 variant (L235_18N)/GpL16-k0 (antibody, human IgG1, kappa)
# heavy 1: not shown
# heavy 2: not shown
# light: B1 light
# notes: as for B1
# B17: GpH7-A5/GpH7-B3 variant (P271_04F)/GpL16-k0 (antibody, human IgG1, kappa)
# heavy 1: not shown
# heavy 2: not shown
# light: B1 light
# notes: as for B1
# B18: GpH7-A5/GpH7-B3 variant (L234_12R)/GpL16-k0 (antibody, human IgG1, kappa)
# heavy 1: not shown
# heavy 2: not shown
# light: B1 light
# notes: as for B1
# B19: GpH7-A5/GpH7-B3 variant (G236_15Y)/GpL16-k0 (antibody, human IgG1, kappa)
# heavy 1: not shown
# heavy 2: not shown
# light: B1 light
# notes: as for B1
# B20: GpH7-A5/GpH7-B3 variant (L234_02A)/GpL16-k0 (antibody, human IgG1, kappa)
# heavy 1: not shown
# heavy 2: not shown
# light: B1 light
# notes: as for B1
# B21: GpH7-A5/GpH7-B3 variant (H268_14T)/GpL16-k0 (antibody, human IgG1, kappa)
# heavy 1: not shown
# heavy 2: not shown
# light: B1 light
# notes: as for B1
# B22: GpH7-A5/GpH7-B3 variant (G236_20W)/GpL16-k0 (antibody, human IgG1, kappa)
# heavy 1: not shown
# heavy 2: not shown
# light: B1 light
# notes: IgG1 heterodimer, G236W in the GpH7-B3 chain only; also called GpH7-A5/GpH7-B3-03-20W/GpL16-k0; He Ab
# B23: GpH7-A5/GpH7-B3 variant (G236_12R)/GpL16-k0 (antibody, human IgG1, kappa)
# heavy 1: not shown
# heavy 2: not shown
# light: B1 light
# notes: as for B1
# B24: GpH7-A5/GpH7-B3 variant (G236_11K)/GpL16-k0 (antibody, human IgG1, kappa)
# heavy 1: not shown
# heavy 2: not shown
# light: B1 light
# notes: as for B1
# Target: T1, FcγRIIb
# Assay: SPR, captured antibody; relative to GpH7-A5/GpH7-B3/GpL16-k0
row,Binder,He/Con_2b
1,B1,"26.8 relative, HeCon Ab = 100"
2,B2,"6.3 relative, HeCon Ab = 100"
3,B3,"89.8 relative, HeCon Ab = 100"
4,B4,"67.8 relative, HeCon Ab = 100"
5,B5,"80.9 relative, HeCon Ab = 100"
6,B6,"66.4 relative, HeCon Ab = 100"
7,B7,"65.7 relative, HeCon Ab = 100"
8,B8,"99.8 relative, HeCon Ab = 100"
9,B9,"83 relative, HeCon Ab = 100"
10,B10,"47.7 relative, HeCon Ab = 100"
11,B11,"61.4 relative, HeCon Ab = 100"
12,B12,"73.1 relative, HeCon Ab = 100"
13,B13,"35.4 relative, HeCon Ab = 100"
14,B14,"54.7 relative, HeCon Ab = 100"
15,B15,"96.3 relative, HeCon Ab = 100"
16,B16,"54.9 relative, HeCon Ab = 100"
17,B17,"59.5 relative, HeCon Ab = 100"
18,B18,"18.9 relative, HeCon Ab = 100"
19,B19,"39.5 relative, HeCon Ab = 100"
20,B20,"64.9 relative, HeCon Ab = 100"
21,B21,"86 relative, HeCon Ab = 100"
22,B22,"58.2 relative, HeCon Ab = 100"
23,B23,"6.8 relative, HeCon Ab = 100"
24,B24,"49.8 relative, HeCon Ab = 100"

# Target: T2, FcγRIa (human, UniProt P12314 16-292)
# T2 construct: extracellular domain; also called FcgRI; 1a
# Assay: as above
# T2 sequence (P12314 16-292): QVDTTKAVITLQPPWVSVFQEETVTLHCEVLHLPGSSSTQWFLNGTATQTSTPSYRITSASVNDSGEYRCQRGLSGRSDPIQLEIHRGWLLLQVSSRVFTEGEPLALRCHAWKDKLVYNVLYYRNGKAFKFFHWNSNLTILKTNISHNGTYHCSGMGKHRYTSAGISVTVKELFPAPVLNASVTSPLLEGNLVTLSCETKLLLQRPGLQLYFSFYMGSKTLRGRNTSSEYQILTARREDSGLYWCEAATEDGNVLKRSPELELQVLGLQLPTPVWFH
row,Binder,He/Con_1a
1,B1,"79.6 relative, HeCon Ab = 100"
2,B2,"79.9 relative, HeCon Ab = 100"
3,B3,"106 relative, HeCon Ab = 100"
4,B4,"107 relative, HeCon Ab = 100"
5,B5,"103 relative, HeCon Ab = 100"
6,B6,"94.7 relative, HeCon Ab = 100"
7,B7,"105 relative, HeCon Ab = 100"
8,B8,"101 relative, HeCon Ab = 100"
9,B9,"106 relative, HeCon Ab = 100"
10,B10,"102 relative, HeCon Ab = 100"
11,B11,"78.5 relative, HeCon Ab = 100"
12,B12,"104 relative, HeCon Ab = 100"
13,B13,"87.2 relative, HeCon Ab = 100"
14,B14,"94.7 relative, HeCon Ab = 100"
15,B15,"100 relative, HeCon Ab = 100"
16,B16,"92.2 relative, HeCon Ab = 100"
17,B17,"102 relative, HeCon Ab = 100"
18,B18,"91.8 relative, HeCon Ab = 100"
19,B19,"92.5 relative, HeCon Ab = 100"
20,B20,"97.5 relative, HeCon Ab = 100"
21,B21,"112 relative, HeCon Ab = 100"
22,B22,"105 relative, HeCon Ab = 100"
23,B23,"63.1 relative, HeCon Ab = 100"
24,B24,"71 relative, HeCon Ab = 100"
